Experimental data reported in US20240174764A1 (Memorial Sloan Kettering, published 2024).

How the values were obtained:
[1] = target: T1, BTM protein (synthetic fusion protein of the highly conserved extracellular portion of MUC16^c57-114 fused to … (human, UniProt Q8WXI7 14394-14451)); assay: SPR (BiaCore X100), His-tagged BiTED on NTA chip, BTM as analyte, 1:1 model
T1 construct: domain: highly conserved extracellular portion of MUC16^c57-114; also called MUC16 BTM protein; Muc16 BTM protein; not shown: human Fc (pFUSE backbone)
T1 sequence: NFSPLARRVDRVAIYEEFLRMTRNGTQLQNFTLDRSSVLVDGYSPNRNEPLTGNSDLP
Description: (§1) Kinetic Analysis of BiTEDs binding to MUC16^ecto. The kinetic analysis of EXT170-8 BiTEDs and Muc16 BTM protein (55mer highly conserved ectodomain region of MUC16) was performed on a BiaCore X100 instrument loaded with an NTA sensor chip. EXT170-8 BiTED comprises the amino acid of SEQ ID NO: 89 and the leader sequence of SEQ ID NO: 93.
(§2) The raw data was analyzed using the kinetic model 1:1 binding by Biacore X100 evaluation software.
MUC16^ecto-BiTEDs were purified and confirmed by SDS-page (FIG. 1(c)). To determine the binding affinity of BiTEDs to MUC16^ecto, a previously validated BTM protein (a synthetic fusion protein consisting of the highly conserved extracellular portion of MUC16^c57-114 fused to a human Fc backbone pFUSE) was used, and kinetic analysis was performed using surface plasmon resonance.

[2] = target: T1, BTM protein (synthetic fusion protein …); assay: SPR, BiaCore X100, His-tagged EXT170-8 BiTEDs immobilised on an NTA sensor chip, MUC16 BTM protein injected at 35.625 to 570 nM, 1:1 binding model [d]
Description: as §1, §2

Kd [1]: 69.9 nM | koff [2]: 0.0157 s⁻¹ | kon [2]: 224000 M⁻¹ s⁻¹
B1: EXT170-8 BiTED (MUC16^ecto-specific Bispecific T-cell engaging diabody, Clone 8 (LH)/anti-CD3 bispecific antibody) (bispecific antibody)
chain: DIQLTQSPSAVSASVGDRVTITCRASQDVSKWLAWYQQKPGKAPRLLISAASGLQSWVPSRFSGSGSGTEFTLSISSLQPEDFATYYCQQANSFPWTFGQGTKVEIKRSRGGGGSGGGGSGGGGSLEMAQVQLQQWGAGLLKPSETLSLTCAVYGGSFSGYYWSWIRQPPGKGLEWIGEINHSGSTNYNPSLKSRVTISVDTSKNQFSLKLSSVTAADTAVYYCARQSYITDSWGQGTLVTVSSTSGGGGSDVQLVQSGAEVKKPGASVKVSCKASGYTFTRYTMHWVRQAPGQGLEWIGYINPSRGYTNYADSVKGRFTITTDKSTSTAYMELSSLRSEDTATYYCARYYDDHYCLDYWGQGTTVTVSSGEGTSTGSGGSGGSGGADDIVLTQSPATLSLSPGERATLSCRASQSVSYMNWYQQKPGKAPKRWIYDTSKVASGVPARFSGSGSGTDYSLTINSLEAEDAATYYCQQWSSNPLTFGGGTKVEIKHHHHHH
notes: The molecule was His-tagged in SPR and biotinylated in ELISA; also called MUC16^ecto-BiTEDs; EXT170-8 BiTEDs
